According to the supplement of paper PMC12764529:
± gives the half width of the 95% confidence interval.

How the values were obtained:
[1] = folding stability dG unfold from trypsin proteolysis; higher = more stable
In short: (§1)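 Unfolding free energy was derived, per protease or combined, by relating Bayesian-fitted K50 values from sequencing counts to a sequence-predicted unfolded-state K50 and a shared folded-state K50. The underlying digests exposed cysteine-free mini-proteins under 80 residues, in a PA-tagged cDNA display construct, to trypsin and chymotrypsin at 11 threefold-diluted concentrations and to a no-protease condition. A filter kept only designs with AlphaFold2 dimer inter-PAE above 15.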

[2] = folding stability dG unfold (combined trypsin and chymotrypsin); higher = more stable
In short: as §1

[3] = folding stability dG unfold from chymotrypsin proteolysis; higher = more stable
In short: as §1

Sequence | folding stability dG unfold [1] [kcal/mol] | folding stability dG unfold [2] [kcal/mol] | folding stability dG unfold [3] [kcal/mol]
SAGGMVEVKPFEIKPPGSSITVTLTDPQGNVIGSTTVSVPTGRLELTITVEPDKTVKVTLTELPPSEVSAGG [r13_935_JUSTAS] | 1.42 ± 0.086 | 1.01 ± 0.13 | -0.262 ± 0.34
SAGGMVIVIKTPGGASELEIGDLTITTNPDTGLRVAEATPEQIEELLKADALKDIEEIEVLPIEELLSAGGS [r8_493_TrMRF] | 0.406 ± 0.047 | 0.243 ± 0.11 | -0.0529 ± 0.038
SAGGMVKIVRVTFEDGRELVLTEPEKIEEFLKKALGPNFVIKEVREGYVPHPDGPPIPTFELVVERPSAGGS [r16_408_TrMRF] | 2.11 ± 0.053 | 2.44 ± 0.042 | 2.65 ± 0.021
SAGGMVKVLKVETYPGTGEVIVTMELPGNTVATVRIPRAPDAPLTVSPDGVVTVPTAPVTELETTAPSAGGS [r16_515_JUSTAS] | -0.276 ± 0.053 | 0.322 ± 0.049 | 0.591 ± 0.054
SAGGMVLVEPSPDAVVRVIEREGDLARVTVYDPRSGARTVELVPIAPTGKGGVRLETLEVRVLPDAEASAGG [r13_556_JUSTAS] | -0.136 ± 0.035 | -0.0934 ± 0.057 | -0.0954 ± 0.048
SAGGMVLVSTPSNRGASSEILKEAAEAISAGDPDKAAELAREYFQKNFPPDEPIKIEIFVDPPVEPESAGGS [r8_48_TrMRF] | 0.476 ± 0.011 | 0.662 ± 0.044 | 0.744 ± 0.063
SAGGMVTTESTKPYLLPNGTKATLTTTTTLYPDGTVVSPTTFTLTFPDGSSTTTTTTTVTTLASGALSAGGS [r16_505_JUSTAS] | 0.836 ± 0.048 | 0.727 ± 0.065 | 0.563 ± 0.089
SAGGMVTVSTPLGLGYSEEIKARMEEYVKAGDPEAAKELAQEYIDAKYPPKWPVEISFHENPAISKKSAGGS [r8_48_JUSTAS] | -0.769 ± 0.38 | -0.396 ± 0.36 | -0.209 ± 0.18
SAGGMYMVQIEVRSPDKEIPFMIMVPEDDPKKIVDDIKEEIAEEAGADNVNIKIEVYRMDENGEWEWISAGG [r13_877_TrROS] | 0.866 ± 0.088 | 1.02 ± 0.11 | 1.01 ± 0.13
SAGGMYVLPIDLDPASLTEEERLAVARELAEELYAAGVPGDVMLIIPREEKPLTITIDFATGEVTVVDSAGG [r19_204_JUSTAS] | 1.32 ± 0.045 | 1.31 ± 0.048 | 1.22 ± 0.055
SAGGNFVVPFKDPEQVKEIREAAEKGEEIEITPPDGKKFTFKVESVEVDPESGRVVIKLPSGKEFPLSAGGS [r16_254_TrMRF] | 0.275 ± 0.057 | 0.617 ± 0.16 | 0.62 ± 0.24
SAGGNIKIKLKGKIYDLNSNKYYDVEIEYDPKTGKAIITTPKGLKFEINPKEKKAEIPSKNYALEIGSAGGS [r16_743_TrMRF] | 1.21 ± 0.096 | 1.2 ± 0.16 | 1.37 ± 0.17
SAGGNIKIQVENHEDGWYMKIWVPGNGKEQEYPFEPGDTIDTLPPGAEPVKIEWFHMNDNPQEFELDSAGGS [r8_487_TrROS] | 0.295 ± 0.11 | 0.421 ± 0.18 | 0.45 ± 0.23
SAGGNINDIAKKLGLPPGGMIMIKDFSLEWHRMPMRVPEEDNDKPKEEKEVPMPMYKAEIKISLFPADSAGG [r13_482_TrROS] | 0.955 ± 0.056 | 1.52 ± 0.22 | 2 ± 0.13
SAGGNIQIHYNPDWGVIRITYMFPSPTEAEDFIKKLLPPGYKIEPIEVERNPDGYYQVSIEIRLPKGASAGG [r13_338_TrROS] | 2.82 ± 0.12 | 3.64 ± 0.063 | 3.924 ± 0.036
SAGGNNAWVQITIPITIKPVYEPEYDPDNGKPKWEPREMEIPITIWAPFDDPEDAERAADDILKSLGISAGG [r13_35_TrROS] | 0.837 ± 0.037 | 0.756 ± 0.1 | 0.769 ± 0.12
SAGGNNIMIWIRKNPKEGKRKIMIYTDSPSWVEMIAEEAKDPGFKIVGPMTVEEAAQKMGFPPDLFISAGGS [r16_438_TrROS] | 1.09 ± 0.14 | 1.27 ± 0.2 | 1.29 ± 0.15
SAGGNPDGKPDGGVSFVVNVAKTKPYIDPSTGKVYPVVEVKPVVIEVKKDEKLDLSELLKNTDYISVSSAGG [r13_753_TrMRF] | -0.463 ± 0.14 | 0.0383 ± 0.12 | 0.142 ± 0.13
SAGGNPRPIELYFPEGKIEKIQEKLREEDGYDVDIQMEQNPDGWFKINITFQDPQRVMDILEKFGITSAGGS [r16_172_TrROS] | 1.19 ± 0.058 | 1.26 ± 0.089 | 1.37 ± 0.031
SAGGPDNIRIDLKIEPTGDSVKITFPIYNPNGSPIKVEMEYQRVGGKKFFRMKIEFGGRPIELWIPISAGGS [r16_476_TrROS] | 3.4 ± 0.13 | 4.7 ± 0.22 | 4.93 ± 0.094
SAGGPEELAERIAEFARENGYEVDVLSVEELPGDFVRIHMRIRGLSEDEPVFERDAVLVFPPLPGERSAGGS [r8_102_TrMRF] | 1.45 ± 0.025 | 3 ± 0.052 | 3.439 ± 0.02

Sequence | folding stability dG unfold [1] [kcal/mol] | folding stability dG unfold [2] [kcal/mol] | folding stability dG unfold [3] [kcal/mol]
SAGGPETRTFTIPAAPATVTVTLEKVGDGYRVSLTLTNPDGQTVEVPPDQPVVIPAGASVGAALAPESAGGS [r16_669_TrMRF] | 1.01 ± 0.034 | 1.35 ± 0.1 | 1.53 ± 0.091
SAGGPEVEAERFGDTVLVRITLLDPETGEPYEFLAIATRRPDGTVTVTIIHPDGRPSTIPLPLLPLASAGGS [r16_154_TrMRF] | 2.63 ± 0.16 | 2.26 ± 0.14 | 1.88 ± 0.039
SAGGPGAEIWFIKIPIEIEMKMKRKRENDPDGNPRPEWEMEMKIEIPIEIYPIRVRLDPDGKIKSIEFSAGG [r13_148_TrROS] | 2.77 ± 0.15 | 3.67 ± 0.23 | 4.3 ± 0.11
SAGGPGMEPIGEIKLDDGVTIEVWRPPNGWYRAKVEFPDNGKQINYPFNPNMSFEQAKDQIKELARKLSAGG [r13_624_TrROS] | 0.519 ± 0.13 | 1.52 ± 0.36 | 1.86 ± 0.15
SAGGPGRMREREFEIEFPFEPGQSIEDALRELIGLPPGIQIEDIKVEVDPEDGWVKISVTITVYDPNDSAGG [r13_828_TrROS] | 1.22 ± 0.042 | 1.29 ± 0.15 | 1.29 ± 0.071
SAGGPKPKTYDIMIPFDSEEEAEKLMENPEWAKEIAKEIAPLFPGYDIKVEVSWHPETGYFMVKITVSAGGS [r16_320_TrROS] | 3.21 ± 0.18 | 4.01 ± 0.13 | 4.12 ± 0.18
SAGGPKWYYITIKIPDDPKKAERLVDRLQDLFGEDVRINVNPGNNHVTVWIPNDLRPLLKDHGLEITPSAGG [r13_156_TrROS] | 2.94 ± 0.086 | 2.93 ± 0.047 | 2.95 ± 0.02
SAGGPMKPFLKNFSGPEEAIAFVNKLREELKGPVGLTLIFPDGSVIEVVDPQKLESIDNFEVIVTVSESAGG [r13_620_JUSTAS] | 1.39 ± 0.039 | 1.69 ± 0.096 | 1.8 ± 0.085
SAGGPMKVKVTLIVRDKETGEWKEVEREMTLDELRELLASLPPDAEVFVKIEVDGKTVTLSLEELKALSAGG [r13_254_TrROS_Hall] | 3.84 ± 0.17 | 4.29 ± 0.12 | 4.32 ± 0.097
SAGGPNFTIKIEIEEIPNGVRVHKMTMELPDGHAWLMVMLYSPDPGKMFMIMVPVDPNGGIEDINIMPSAGG [r13_323_TrROS] | 2.52 ± 0.077 | 3.92 ± 0.19 | 4.12 ± 0.074
SAGGPNLYIFIKIEHKGQTVTFMYPVPPGNLEKLVDEIASMGFPEIKIEEIYIFPPNGWIPVTVRLPSAGGS [r8_219_TrROS] | 2.88 ± 0.13 | 3.4 ± 0.14 | 3.71 ± 0.041
SAGGPPGWKPVEMKITVMFDDPEEAAEKIKEEVRSHFPNIEITKVEVQRNPENNMYMVTVDIRMWVPSAGGS [r8_120_TrROS] | 3.08 ± 0.18 | 3.37 ± 0.11 | 3.37 ± 0.081
SAGGPPIKKIEITKIHPGKGIIQVSIKLPGDGHPIMVRAEIDDPEPGKIKIEIQDPNNGQPQEITIKFSAGG [r13_337_TrROS] | 1.23 ± 0.094 | 1.1 ± 0.28 | 0.683 ± 0.08
SAGGPPRPVRIDIDPDAGSIEIMFPNGWPYEIPIPPDSIDEITLDPNDHVIEIKMPGKEIKFDIEPVSAGGS [r16_104_TrROS] | -0.376 ± 0.12 | 0.443 ± 0.11 | 0.757 ± 0.029
SAGGPPVAEIRVTEEDPETGVVRMEATLPEAPRPVRATGTRLDPGGGTVLVTVTDPDGGPDTTTTLAASAGG [r13_337_JUSTAS] | -0.308 ± 0.1 | 0.0684 ± 0.12 | 0.221 ± 0.12
SAGGPPVIRFPTAEIPASGTIEDIVAAIERATGEPLPEELVEQILNGKTIEEIIELLKKRGYPVEYLSAGGS [r16_601_JUSTAS] | 3.84 ± 0.14 | 3.33 ± 0.088 | 3.11 ± 0.074
SAGGPRVEVEEVELEGDYLVVRARVEVPLDDGTYEFELTLVLPVPPPPLPLPPVDPRFPRAPDDDLVSAGGS [r8_234_TrMRF] | 0.584 ± 0.073 | 0.971 ± 0.13 | 1.33 ± 0.073
SAGGPVFEVTPEVDPDTDLVTYTVRVPADVDFAAVAKALETEFADGSRAEVKPLPDGTVVVVVRLPASAGGS [r8_255_TrMRF] | 1.25 ± 0.023 | 0.942 ± 0.059 | 0.307 ± 0.12
SAGGPVLRLSFPTRTPDGELVRVEVVYDPETGALLVRVYSLTRPNRAVLYLVDPENPLTVLRAEELPLSAGG [r13_400_TrMRF] | 2.47 ± 0.11 | 2.82 ± 0.18 | 3.01 ± 0.071
SAGGPVVTTTTEYDPSTGKTYTVTTVPGSATQTTTYTLPDGTVLTTTTTVSPTTGGVTSTTPTTTPVPASAG [r5_587_JUSTAS] | 1.3 ± 0.046 | 1.39 ± 0.061 | 1.31 ± 0.089
SAGGPWHEQKHEITDPDDGKPIKISHTHYPDGYPRVRIELNNGKKIEFMVPPNGPPTPDQLLDAIKQFSAGG [r13_492_TrROS] | 0.317 ± 0.092 | 0.478 ± 0.11 | 0.452 ± 0.16
